Test results published in paper PMC6800134.

Biological target: GST-tagged Rb RxL mut (lacks all 5 RxL sequences in its unstructured regions) (human) (UniProt P06400)
Chain of UniProt P06400 (P06400 whole entry): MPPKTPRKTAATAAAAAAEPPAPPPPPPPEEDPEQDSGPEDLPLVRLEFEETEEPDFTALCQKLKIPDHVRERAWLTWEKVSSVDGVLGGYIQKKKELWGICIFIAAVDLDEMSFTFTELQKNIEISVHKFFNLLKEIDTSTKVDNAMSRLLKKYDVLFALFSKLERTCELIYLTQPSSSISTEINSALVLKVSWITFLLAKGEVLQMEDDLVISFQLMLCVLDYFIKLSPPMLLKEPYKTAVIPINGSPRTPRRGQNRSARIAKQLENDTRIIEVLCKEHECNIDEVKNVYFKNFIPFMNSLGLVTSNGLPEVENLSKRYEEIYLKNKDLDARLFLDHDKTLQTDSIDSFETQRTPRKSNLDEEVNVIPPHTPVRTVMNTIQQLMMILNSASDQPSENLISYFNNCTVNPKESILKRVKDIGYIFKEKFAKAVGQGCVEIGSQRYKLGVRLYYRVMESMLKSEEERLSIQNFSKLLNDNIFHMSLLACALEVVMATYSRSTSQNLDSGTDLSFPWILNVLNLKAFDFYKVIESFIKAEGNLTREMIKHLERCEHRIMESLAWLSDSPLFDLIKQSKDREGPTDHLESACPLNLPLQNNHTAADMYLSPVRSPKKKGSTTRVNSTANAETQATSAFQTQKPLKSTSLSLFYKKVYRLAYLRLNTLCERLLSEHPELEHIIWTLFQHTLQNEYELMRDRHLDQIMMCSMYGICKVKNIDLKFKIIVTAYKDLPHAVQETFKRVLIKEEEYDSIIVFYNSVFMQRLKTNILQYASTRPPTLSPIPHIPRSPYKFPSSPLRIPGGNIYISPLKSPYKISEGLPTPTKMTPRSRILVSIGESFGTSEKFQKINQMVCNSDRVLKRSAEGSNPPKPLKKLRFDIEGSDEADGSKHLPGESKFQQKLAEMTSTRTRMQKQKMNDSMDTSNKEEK

in vitro kinase assay: fold less phosphorylation than wild type Rb [fold] | Substance
2.9 | 3X FLAG-tagged cyclin A-Cdk2 fusion complex (enzyme)
2 | 3X FLAG-tagged cyclin E1-Cdk2 fusion complex (enzyme)
